B1: GLT8D1 (Homo sapiens) (protein)
chain: MSFRKVNIIILVLAVALFLLVLHHNFLSLSSLLRNEVTDSGIVGPQPIDFVPNALRHAVDGRQEEIPVVIAASEDRLGGAIAAINSIQHNTRSNVIFYIVTLNNTADHLRSWLNSDSLKSIRYKIVNFDPKLLEGKVKEDPDQGESMKPLTFARFYLPILVPSAKKAIYMDDDVIVQGDILALYNTALKPGHAAAFSEDCDSASTKVVIRGAGNQYNYIGYLDYKKERIRKLSMKASTCSFNPGVFVANLTEWKRQNITNQLEKWMKLNVEEGLYSRTLAGSITTPPLLIVFYQQHSTIDPMWNVRHLGSSAGKRYSPQFVKAAKLLHWNGHLKPWGRTASYTDVWEKWYIPDPTGKFNLIRRYTEISNIK
B2: GLT8D1 (Homo sapiens; R92C) (protein)
chain: MSFRKVNIIILVLAVALFLLVLHHNFLSLSSLLRNEVTDSGIVGPQPIDFVPNALRHAVDGRQEEIPVVIAASEDRLGGAIAAINSIQHNTCSNVIFYIVTLNNTADHLRSWLNSDSLKSIRYKIVNFDPKLLEGKVKEDPDQGESMKPLTFARFYLPILVPSAKKAIYMDDDVIVQGDILALYNTALKPGHAAAFSEDCDSASTKVVIRGAGNQYNYIGYLDYKKERIRKLSMKASTCSFNPGVFVANLTEWKRQNITNQLEKWMKLNVEEGLYSRTLAGSITTPPLLIVFYQQHSTIDPMWNVRHLGSSAGKRYSPQFVKAAKLLHWNGHLKPWGRTASYTDVWEKWYIPDPTGKFNLIRRYTEISNIK
B3: GLT8D1 (Homo sapiens; G78W) (protein)
chain: MSFRKVNIIILVLAVALFLLVLHHNFLSLSSLLRNEVTDSGIVGPQPIDFVPNALRHAVDGRQEEIPVVIAASEDRLWGAIAAINSIQHNTRSNVIFYIVTLNNTADHLRSWLNSDSLKSIRYKIVNFDPKLLEGKVKEDPDQGESMKPLTFARFYLPILVPSAKKAIYMDDDVIVQGDILALYNTALKPGHAAAFSEDCDSASTKVVIRGAGNQYNYIGYLDYKKERIRKLSMKASTCSFNPGVFVANLTEWKRQNITNQLEKWMKLNVEEGLYSRTLAGSITTPPLLIVFYQQHSTIDPMWNVRHLGSSAGKRYSPQFVKAAKLLHWNGHLKPWGRTASYTDVWEKWYIPDPTGKFNLIRRYTEISNIK

Substrate in the series: O=c1ccn([C@@H]2O[C@H](COP(=O)(O)OP(=O)(O)O[C@H]3O[C@H](CO)[C@H](O)[C@H](O)[C@H]3O)[C@@H](O)[C@H]2O)c(=O)[nH]1
Nature of the series: UDP-Glo glycosyltransferase assay. Format: biochemical, Homo sapiens. To be noted: no acceptor, 50 mM Tris pH 7.5, 5 mM MnCl2, 37 °C, 60 min.
For B1, the Michaelis-Menten constant (Km) (commonly the substrate concentration at which the rate is half of its maximum) is 3500 µM. With B2, the Km turned out to be 2500 µM. Next, B3: 2300 µM.

The record behind these values is PMC7003067.
